This test has as its target ErbB4 on primary adult rat ventricular cardiomyocytes (rat) (UniProt Q62956). The test is described as follows: cell-based or functional assay.
UniProt Q62956, sequence (Q62956 26-1308): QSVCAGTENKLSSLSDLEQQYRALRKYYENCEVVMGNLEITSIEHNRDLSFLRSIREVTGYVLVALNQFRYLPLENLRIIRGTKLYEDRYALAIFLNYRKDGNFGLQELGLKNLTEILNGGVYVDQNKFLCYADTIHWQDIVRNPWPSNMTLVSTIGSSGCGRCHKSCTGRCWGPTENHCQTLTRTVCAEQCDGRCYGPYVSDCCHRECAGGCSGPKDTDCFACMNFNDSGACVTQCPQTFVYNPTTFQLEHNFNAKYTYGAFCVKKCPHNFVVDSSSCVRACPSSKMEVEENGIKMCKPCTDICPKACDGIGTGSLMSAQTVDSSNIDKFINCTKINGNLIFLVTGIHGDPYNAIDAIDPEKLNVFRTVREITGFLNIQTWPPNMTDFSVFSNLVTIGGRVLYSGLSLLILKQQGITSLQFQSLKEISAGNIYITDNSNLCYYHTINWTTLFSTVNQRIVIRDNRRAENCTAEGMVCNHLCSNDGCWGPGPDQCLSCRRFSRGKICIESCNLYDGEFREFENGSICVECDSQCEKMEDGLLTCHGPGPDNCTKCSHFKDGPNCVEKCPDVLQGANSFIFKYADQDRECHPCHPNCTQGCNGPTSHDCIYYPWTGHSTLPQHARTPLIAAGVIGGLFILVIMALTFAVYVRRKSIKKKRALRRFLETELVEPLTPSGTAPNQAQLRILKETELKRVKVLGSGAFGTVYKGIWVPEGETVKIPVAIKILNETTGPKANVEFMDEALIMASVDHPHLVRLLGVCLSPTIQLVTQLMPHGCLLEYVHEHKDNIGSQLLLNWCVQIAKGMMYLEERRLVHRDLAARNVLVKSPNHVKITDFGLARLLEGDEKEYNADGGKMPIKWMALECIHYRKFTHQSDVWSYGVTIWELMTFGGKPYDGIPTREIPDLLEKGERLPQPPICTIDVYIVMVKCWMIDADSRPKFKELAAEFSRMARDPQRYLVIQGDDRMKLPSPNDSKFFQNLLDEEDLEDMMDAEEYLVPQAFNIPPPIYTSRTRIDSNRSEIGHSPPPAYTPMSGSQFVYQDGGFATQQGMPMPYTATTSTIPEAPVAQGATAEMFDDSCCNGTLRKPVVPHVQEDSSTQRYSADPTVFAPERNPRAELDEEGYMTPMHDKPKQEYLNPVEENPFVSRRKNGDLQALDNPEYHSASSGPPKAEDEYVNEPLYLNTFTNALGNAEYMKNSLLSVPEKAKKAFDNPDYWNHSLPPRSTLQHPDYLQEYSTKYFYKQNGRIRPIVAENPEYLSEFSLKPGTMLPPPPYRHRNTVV

Turning to “NRG1 (EGF-like domain, amino acids 176-246), R&D Systems (from UniProt Q02297-11 121-191) (ligand)”, the half-maximal stimulation EC50 of NRG1-induced DNA synthesis (BrdU uptake) in primary adult rat ventricular cardiomyocytes stood at 0.04 nM.

For the origin of these results see patent US20120121557A1.
